B1: BBSome complex member BBS2 (Homo sapiens), Q9BXC9 (parent)
chain: MLLPVFTLKLRHKISPRMVAIGRYDGTHPCLAAATQTGKVFIHNPHTRNQHVSASRVFQSPLESDVSLLSINQAVSCLTAGVLNPELGYDALLVGTQTNLLAYDVYNNSDLFYREVADGANAIVLGTLGDISSPLAIIGGNCALQGFNHEGSDLFWTVTGDNVNSLALCDFDGDGKKELLVGSEDFDIRVFKEDEIVAEMTETEIVTSLCPMYGSRFGYALSNGTVGVYDKTSRYWRIKSKNHAMSIHAFDLNSDGVNELITGWSNGKVDARSDRTGEVIFKDNFSSAIAGVVEGDYRMDGHIQLICCSVDGEIRGYLPGTAEMRGNLMDTSAEQDLIRELSQKKQNLLLELRNYEENAKAELASPLNEADGHRGIIPANTRLHTTLSVSLGNETQTAHTELRISTSNDTIIRAVLIFAEGIFTGESHVVHPSIHNLSSSICIPIVPPKDVPVDLHLKAFVGYRSSTQFHVFESTRQLPRFSMYALTSLDPASEPISYVNFTIAERAQRVVVWLGQNFLLPEDTHIQNAPFQVCFTSLRNGGHLHIKIKLSGEITINTDDIDLAGDIIQSMASFFAIEDLQVEADFPVYFEELRKVLVKVDEYHSVHQKLSADMADHSNLIRSLLVGAEDARLMRDMKTMKSRYMELYDLNRDLLNGYKIRCNNHTELLGNLKAVNQAIQRAGRLRVGKPKNQVITACRDAIRSNNINTLFKIMRVGTASS
partner: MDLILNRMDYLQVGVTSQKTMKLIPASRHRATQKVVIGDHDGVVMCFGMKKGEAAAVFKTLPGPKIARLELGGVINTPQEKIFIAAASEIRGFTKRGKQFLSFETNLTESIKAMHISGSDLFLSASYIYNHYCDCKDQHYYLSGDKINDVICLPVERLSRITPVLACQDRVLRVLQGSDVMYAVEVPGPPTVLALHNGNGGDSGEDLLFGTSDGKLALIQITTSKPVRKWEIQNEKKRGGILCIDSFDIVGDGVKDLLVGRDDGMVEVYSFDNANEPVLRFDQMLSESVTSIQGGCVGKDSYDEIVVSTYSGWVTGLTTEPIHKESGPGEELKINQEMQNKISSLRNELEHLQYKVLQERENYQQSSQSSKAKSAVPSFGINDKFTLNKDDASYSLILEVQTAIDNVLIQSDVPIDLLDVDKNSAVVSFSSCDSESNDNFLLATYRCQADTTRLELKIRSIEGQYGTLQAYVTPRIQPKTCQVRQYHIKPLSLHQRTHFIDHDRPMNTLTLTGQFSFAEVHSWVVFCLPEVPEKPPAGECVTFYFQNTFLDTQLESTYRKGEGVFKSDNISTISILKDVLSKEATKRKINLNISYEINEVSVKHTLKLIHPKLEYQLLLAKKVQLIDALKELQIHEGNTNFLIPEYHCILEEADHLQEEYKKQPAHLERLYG

Variants of: B1
Conditions: with BBS7, Q8IWZ6-2

Row | Variant | effect of a mutation on the interaction
1 | R703A | with no effect
2 | R703K | with no effect
3 | R703E | with no effect
4 | R699A | with no effect
5 | R699E | with no effect
6 | R699K | with no effect
7 | K691A | with no effect
8 | K691E | with no effect
9 | N708E | with no effect
10 | N708A | with no effect
11 | N708K | with no effect
12 | T709E | with no effect
13 | T709K | with no effect
14 | T709A | with no effect
15 | A719E | with no effect
16 | A719K | with no effect
17 | V694A | with no effect
18 | V694E | with no effect
19 | V694K | with no effect
20 | I707A | with no effect
21 | I707E | with no effect
22 | I707K | with no effect
23 | D700K | with no effect
24 | D700A | with no effect
25 | D700E | with no effect
26 | K689E | with no effect

Row | Variant | effect of a mutation on the interaction
27 | K689A | with no effect
28 | T696K | with no effect
29 | T696A | with no effect
30 | T696E | with no effect
31 | F711A | with no effect
32 | F711E | with no effect
33 | F711K | with no effect
34 | R715A | with no effect
35 | R715K | with no effect
36 | R715E | with no effect
37 | I695A | with no effect
38 | I695K | with no effect
39 | I695E | with no effect
40 | G717E | with no effect
41 | G717K | with no effect
42 | G717A | with no effect
43 | L710E | with no effect
44 | L710A | with no effect
45 | L710K | with no effect
46 | T718K | with no effect
47 | T718A | with no effect
48 | T718E | with no effect
49 | N692K | with no effect
50 | N692A | with no effect
51 | N692E | with no effect

Variants of: B1
Conditions: with BBS7, Q8IWZ6-2
Remark: another data set of the same source

Row | Variant | effect of a mutation on the interaction
52 | S365R | disrupting interaction strength

Reference: IntAct's records for PubMed 29039417
